“And” between values parts separate entries of the source, which are not always exact repeats. Equal entries are not always repeated.
Target: the molecule itself
Experiment: relative peak intensities in 2D HSQC NMR spectra; monomer/dimer/tetramer levels of CXCL7 as a function of buffer, temperature, pH and concentration (Table S1)

B1: CXCL7 (NAP-2, neutrophil-activating peptide 2), wild type (natural protein, UniProt P02775 59-128, looked up)
chain: AELRCMCIKTTSGIHPKNIQSLEVIGKGTHCNQVEVIATLKDGRKICLDPDAPRIKKIVQKKLAGDESAD
notes: Chemokine CXCL7, also known as NAP-2; 15N-labelled for the HSQC titrations; Exists as monomer, dimer and tetramer depending on pH and concentration; also called WT CXCL7; native CXCL7 monomer; source: Escherichia coli (LB or 15N/13C enriched minimal medium), purified (nickel column, reverse phase HPLC), lyophilized
In the case of B1, the “stoichiometry N” value is reported as 4 and 2.

Source: paper PMC5372524, “Structural Basis of Native CXCL7 Monomer Binding to CXCR2 Receptor N-Domain and Glycosaminoglycan Heparin” (International Journal of Molecular Sciences, 2017)
